In assay [1] the test system is HeLa cells. Briefly: Live cell confocal imaging of split HaloTag in the FRB/FKBP model system in HeLa cells. The format is cell-based. The settings on record: for signal-to-background ratio, complemented split HaloTag over labeling the large HaloTag alone: presence of Rapamycin; for S:B ratio in +rapamycin/−rapamycin conditions: with HaloTag[3-19] fragment, JF646 imaging. The method, then: (§1) FIG. 105. Live cell imaging of split HaloTag activity in mammalian cells using a model protein interaction system showing dependence on interaction facilitation for labeling. HeLa cells transiently transfected with plasmids expressing both EGFP-FKBP-HaloTag[3-19] and HaloTag[22-297](Q145H+P154R)-FRB were imaged in +/−Rapamycin conditions; in +Rapamycin condition cells were incubated with 1 micromolar Rapamycin overnight at 37° C. Prior to imaging by confocal microscopy, cells were labeled with 100 nM JF646 HaloTag ligand for 30 minutes at 37° C. The Imaging data were collected in the Far-red channel (Ex. 637 nm, left) and the green channel (Ex. 488 nm, right).
(§2) FIG. 106. Quantitation of live cell imaging of split HaloTag activity in mammalian cells using a model protein interaction system. HeLa cells transiently transfected with plasmids expressing both EGFP-FKBP-HaloTag[3-19] and HaloTag[22-297](Q145H+P154R)-FRB were imaged in +/−Rapamycin conditions; in +Rapamycin condition cells were incubated with 1 micromolar Rapamycin overnight at 37° C. Prior to imaging by confocal microscopy, cells were labeled with 100 nM JF646 HaloTag ligand for 30 minutes at 37° C. Comparison of the fluorescence intensity of non-complemented vs. complemented split HaloTag in +/−RAP conditions in the far-red channel, respectively.
as §1, with “107.” for “105.”, “HaloTag[22-297](M2F)-FRB” for “HaloTag[22-297](Q145H+P154R)-FRB”
as §2, with “FIG. 108. Quantitation of” for “FIG. 106. Quantitation of”, “EGFP-FKBP-HaloTag[3-19] and HaloTag[22-297](M2F)-FRB were imaged” for “EGFP-FKBP-HaloTag[3-19] and HaloTag[22-297](Q145H+P154R)-FRB were imaged”, “minutes at Comparison of” for “minutes at 37° C. Comparison of”
FIG. 109. […] Each dot represents the intensity of an imaged cell as quantitated using CellProfiler software.
FIG. 115. Live cell imaging of split HaloTag activity in mammalian cells. HeLa cells transiently transfected with plasmids expressing both EGFP-FKBP-HaloTag[3-19] and HaloTag[22-297](Q145H+P154R)-FRB were imaged in +Rapamycin condition, 1 micromolar Rapamycin overnight incubation at 37° C. Prior to imaging by confocal microscopy, cells were labeled with 100 nM JF646 HaloTag ligand for 30 minutes at 37° C. The Imaging data were collected in the Far-red channel (Ex. 637 nm, bottom) and the green channel (Ex. 488 nm, top).
FIG. 116. Live cell imaging of split HaloTag activity in mammalian cells. HeLa cells transiently transfected with plasmids expressing both EGFP-FKBP-HaloTag[3-19] and HaloTag[22-297](Q145H+P154R)-FRB were imaged in and −Rapamycin condition. […]

Assay [2] addresses T1, BRD4:Histone H3.3 interaction (Homo sapiens, UniProt O60885).
T1 construct: HaloTag[3-19]; expressed in transfected cells; host or cells: HeLa cells
Nature of the assay: Live cell imaging of the BRD4:Histone H3 interaction with split HaloTag in HeLa cells. The conditions noted are these: second experiment, lower laser intensity. The format is cell-based.
Source text: The Imaging data were collected in the far-red channel (Ex. 637 nm) and the green channel (Ex. 488 nm).
The imaging data were collected in the far-red channel (Ex. 637 nm) and the green channel (Ex. 488 nm). * DIC: Differential Interference Contrast.
The imaging data were collected in the far-red channel (Ex. 637 nm) and the green channel (Ex. 488 nm).
Each dot represents the intensity of an imaged cell. CellProfiler software is used for analysis. The horizontal line in each set indicates the median of the data.
Each dot represents the intensity of an imaged cell. CellProfiler software is used for this analysis. The horizontal line is indicative of the median of the data.
A second set of imaging experiments was performed to confirm reproducibility and show improvement of the system's signal-to-background ratio by changing a few confocal microscope settings, such as lower gain and laser intensity (FIG. 132).
The purpose of the second experiment (FIG. 131-134) with lower signal intensity was to see if most of the background signal could be eliminated with the cost of the overall reduction in the specific signal in the far-red channel.

Assay [3] can be described thus: Kinetic labeling assay with TMR ligand, fluorescence polarization, synthetic peptide complementation. It counts as biochemical, E. coli. The settings on record: 10 nM TMR ligand. The method, then:
FIG. 32. Complementation of HaloTag[22-297](M2F) fragments using a synthetic HaloTag[3-19] peptide in a kinetic labeling assay.
A different HaloTag ligand (TMR) and fluorescence polarization assay format can be used to measure complementation with synthetic peptides (FIG. 32). […] At high peptide concentrations, the complementation with the peptide results in greater labeling rates.
The LgHT variant, HaloTag[22-297](Q145H+P154R), was also tested with the HaloTag ligand (TMR) in the fluorescence polarization assay format to measure complementation with synthetic peptides (FIG. 33). The relative kinetic rate of labeling is higher for this mutant without peptide due to its greater intrinsic stability and expression in E. coli lysates.

In assay [4] the test system is HeLa cells. Briefly: Lytic TMR assay of large HaloTag fragment expression in HeLa cells. It counts as cell-based. The settings on record: complemented and non-complemented forms. The method, then:
FIG. 124. Comparing the expression of HaloTag[22-297](Q145H+P154R) and HaloTag[22-297](M2F) when complemented with the small HaloTag fragment in mammalian cells. 50 ul of HeLa cells lysate that was transiently transfected with plasmids expressing EGFP-FKBP-HaloTag[3-19], HaloTag[22-297](Q145H+P154R)-FRB or HaloTag[22-297](M2F)-FRB plasmids and were incubated with 500 nM Rapamycin at room temperature for 2 hours to induce HaloTag fragments complementation. TMR HaloTag ligand at 2 micromolar was added to all wells and incubated at room temperature in the dark overnight prior to resolution by SDS-PAGE and fluorescence detection.
Experiments were conducted during development of embodiments herein to compare the expression of HaloTag[22-297](Q145H+P154R) vs. HaloTag[22-297](M2F) as complemented with the small HaloTag fragment HaloTag[3-19] and non-complemented form in mammalian cells (FIG. 124).

Positions count from the first letter of the chain named. In names and notes the source's numbering stands.

B1: HaloTag[22-297](M2F): large HaloTag fragment, positions 22-297 with M to F substitution at second position (protein)
chain: MFHYVDVGPRDGTPVLFLHGNPTSSYVWRNIIPHVAPTHRCIAPDLIGMGKSDKPDLGYFFDDHVRFMDAFIEALGLEEVVLVIHDWGSALGFHWAKRNPERVKGIAFMEFIRPIPTWDEWPEFARETFQAFRTTDVGRKLIIDQNVFIEGTLPMGVVRPLTEVEMDHYREPFLNPVDREPLWRFPNELPIAGEPANIVALVEEYMDWLHQSPVPKLLFWGTPGVLIPPAEAARLAKSLPNCKAVDIGPGLNLLQEDNPDLIGSEIARWLSTLEISG
For B1, in the assay on HeLa cells [1], the “signal-to-background ratio, complemented split HaloTag over labeling the large HaloTag alone” value came out at 16 and the “S:B ratio in +rapamycin/−rapamycin conditions” value is “about 6.7”. The “S:B ratio, background from labeling the large HaloTag” value in assay [2] is 12.

B2: HaloTag[22-297](Q145H+P154R): variant of the LgHT, positions 22-297 with HaloTag9 mutations (protein)
chain: B1 chain with F2M, Q145H, P154R
Consider B2, for which the “labeling rate in the presence of peptide” value in assay [3] is “faster labeling rates relative to the HaloTag[22-297](M2F) mutant”. In the assay on HeLa cells [1] (HaloTag[3-19] fusion plus variant LgHT fusion, 1 micromolar Rapamycin, 100 nM JF646), the “response to Rapamycin” value is recorded as 25 fold. Also, in the assay on HeLa cells [1], the “signal-to-background ratio, complemented split HaloTag over labeling the large HaloTag alone” value came out at 5.7 and the “S:B ratio in +rapamycin/−rapamycin conditions” value was “about 4”. In addition, the “expression in mammalian cells” value in the assay with HeLa cells [4] was “expressed better than HaloTag[22-297](M2F)”. Besides, where the note is “saturates fluorescence intensity at higher peptide concentrations”, the “apparent affinity for the peptide” value is listed as “higher apparent affinity for the peptide”. The “lowest peptide concentration with measurable fold response” value (synthetic HaloTag[3-19] peptide) is reported as “mid-nanomolar range”.

For the origin of these results see patent publication US20240174992A1, “SPLIT MODIFIED DEHALOGENASE VARIANTS” (Promega Corporation, priority 2022, published 2024).
